According to the supplement of paper PMC9732359:
± gives the uncertainty stated by the source.

Test: protein stability index of a GFP-peptide fusion (yeast GPS) (PSI 1-4); higher = more stable; sorted into four equal gates, so the index is relative within each strain
Procedure, shortened: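 For each peptide, the protein stability index sums the read frequency in every gate after multiplying it by the gate number. Read frequencies came from plasmids that were PCR-amplified from each gate and Illumina-sequenced, with reads assigned to strains by barcodes. The gates were four equal bins of GFP/Cherry fluorescence ratio applied to mid-log yeast in leucine-free medium carrying a pooled library of tiled 17-residue yeast protein peptides fused downstream of GFP on a Cherry-expressing plasmid.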

Sequence | protein stability index (doa10∆) | protein stability index (pdr5∆) | protein stability index (san1∆) | protein stability index (ubr1∆)
KRLNFSFVGDYMHDTEL [GRR1] | 2.55 ± 0.065 | 1.89 ± 0.073 | 2.47 ± 0.11 | 3.22 ± 0.085
FMKSVIRSREAFSYEQA [DIS3] | 2.28 ± 0.11 | 2.73 ± 0.082 | 2 ± 0.13 | 2.71 ± 0.12
RPDGVHVINVGKTWEKL [RPS0A] | 3.33 ± 0.12 | 3.41 ± 0.15 | 3.4 ± 0.13 | 3.04 ± 0.081
LEDDSLLSYPIKLDRWL [RPN12] | 3.12 ± 0.072 | 2.87 ± 0.057 | 2.99 ± 0.072 | 2.78 ± 0.063
KVGAEMMMQQQLKNVQL [MED2] | 2.54 ± 0.11 | 2.6 ± 0.085 | 2.96 ± 0.07 | 2.66 ± 0.085
VLKTLEYKLATYGVPGS [NUT1] | 2.75 ± 0.068 | 2.54 ± 0.066 | 3.27 ± 0.045 | 2.18 ± 0.08
QRYVKSVKSVKFPTRKI [RPC34] | – | – | 3.26 ± 0.11 | –
NQNTLKEISARRYKLLT [POP1] | 2.13 ± 0.049 | 2.35 ± 0.045 | 2.1 ± 0.067 | 2.65 ± 0.045
LEEKILAKKTHKQELQD [SMC4] | 2.95 ± 0.093 | 3.21 ± 0.074 | 2.88 ± 0.072 | 2.85 ± 0.073
DDEPTTPAELVGKFLGY [FAS1] | 3.51 ± 0.13 | 3.34 ± 0.14 | 3.16 ± 0.08 | 3.2 ± 0.12
PDILATDLIREKTMMTF [YCS4] | 2.28 ± 0.078 | 3.08 ± 0.081 | 2.86 ± 0.082 | 2.62 ± 0.056
NLVSLLIIVTRKNYMHV [YML031W/NDC1] | 1.21 ± 0.041 | 1.22 ± 0.039 | 1.26 ± 0.11 | 1.3 ± 0.033
AVFKIVLQPLLPRELPK [SNU114] | 2.05 ± 0.083 | 1.76 ± 0.091 | 2.05 ± 0.095 | 2.18 ± 0.074
KRPTPPSFTFGGSTTNN [YOR098C/NUP1] | 2.74 ± 0.051 | 3.03 ± 0.048 | 2.78 ± 0.043 | 2.9 ± 0.032
CFDSTTGRDAGFGILED [RRP40] | 3.33 ± 0.13 | 3.24 ± 0.13 | 3.47 ± 0.12 | 3.41 ± 0.074
IRGNLMGKRVDFSARTV [RPO21] | – | 2.76 ± 0.24 | – | 2.5 ± 0.26
YPDFRHYGLAVDIYTHF [DIS3] | 2.17 ± 0.041 | 2.32 ± 0.041 | 1.9 ± 0.066 | 2.2 ± 0.031
NIVHNFKERQMMVSYPK [AAR2] | 3.04 ± 0.13 | 2.33 ± 0.1 | 1.9 ± 0.15 | 2.19 ± 0.18
RKWVIFITKHLPLLILE [NUT1] | 1.7 ± 0.067 | 1.25 ± 0.045 | 1.21 ± 0.1 | 1.2 ± 0.03
IRDNKLVSEKIINSTAL [RPC82] | 3.24 ± 0.2 | 3.24 ± 0.12 | 2.99 ± 0.19 | 3.14 ± 0.11
TGEAQVDNSPTTESNSR [YLR335W/NUP2] | 2.98 ± 0.086 | 2.83 ± 0.09 | 2.59 ± 0.13 | 3.06 ± 0.092
EYRDLYTNSVELRSLSK [YMR129W/POM152] | 3.18 ± 0.082 | 3.27 ± 0.072 | 3.24 ± 0.065 | 2.79 ± 0.29
KSMLSKPETLSIGKNPF [SWI3] | 2.69 ± 0.053 | 2.91 ± 0.054 | 2.6 ± 0.05 | 2.9 ± 0.037
HFNGIRRLDALVEKVYA [ITC1] | 3.65 ± 0.11 | 2.77 ± 0.068 | 1.94 ± 0.28 | 2.95 ± 0.089
AFGGLNFGGGNNTTPSS [YJL041W/NSP1] | 1.32 ± 0.061 | 1.29 ± 0.064 | 1.46 ± 0.087 | 1.21 ± 0.13
IVKRLYEYGAVSVLLIS [BRR2] | 2.57 ± 0.061 | 2.39 ± 0.055 | 2.24 ± 0.099 | 1.64 ± 0.054
NIDYQKGLLIWRLLFID [GRR1] | 1.9 ± 0.06 | 1.28 ± 0.063 | 1.22 ± 0.2 | 1.45 ± 0.068
NSEISNLPKDKSGIPEF [SSN2] | 2.98 ± 0.087 | 3 ± 0.11 | 2.9 ± 0.072 | 3.33 ± 0.076

Sequence | protein stability index (doa10∆) | protein stability index (pdr5∆) | protein stability index (san1∆) | protein stability index (ubr1∆)
NKVSYYGNPTSKESWRY [RTT102] | 3.23 ± 0.11 | 3.19 ± 0.13 | 2.84 ± 0.17 | 3.42 ± 0.098
KRIKGLEFSALSAADIV [RPO31] | 3.09 ± 0.09 | 3.15 ± 0.076 | 3.15 ± 0.061 | 3.24 ± 0.067
KLLSLLRSKTSAGRIES [SIR4] | 2.11 ± 0.082 | 2.17 ± 0.087 | 2.42 ± 0.15 | 2.36 ± 0.12
ADKRGVLTGGYLDQHKR [SMC3] | 2.46 ± 0.11 | 2.54 ± 0.1 | 2.72 ± 0.074 | 2.94 ± 0.052
HNAGPVAGAGAASGAAA [RPP1B] | 3.11 ± 0.11 | 2.24 ± 0.05 | 2.22 ± 0.12 | 2.02 ± 0.059
GDDEATEIISTLSNGLI [BRR2] | 3.32 ± 0.099 | 3.1 ± 0.13 | 3.42 ± 0.096 | 3.11 ± 0.21
KMLSCAGADRLQQGMRG [RPL10] | 3.43 ± 0.12 | 3.28 ± 0.13 | 2.98 ± 0.11 | 3.32 ± 0.085
ESTSSTEEVEALLQRLK [MTW1] | – | – | – | 3.23 ± 0.19
VGRFSTISSADFIQNVG [ECM29] | 3.16 ± 0.1 | 2.65 ± 0.079 | 3.03 ± 0.08 | 2.72 ± 0.088
FGHIMEDFQVLRLGRGI [YDL088C/ASM4] | 3.04 ± 0.066 | 2.96 ± 0.055 | 2.49 ± 0.068 | 2.96 ± 0.044
IIYHTTFSWLNAELLDY [YLR018C/POM34] | 2.72 ± 0.072 | 2.19 ± 0.068 | 2.56 ± 0.092 | 2.41 ± 0.052
LRTVKEVQFGLFSPEEV [RPO21] | 2.76 ± 0.082 | 2.98 ± 0.081 | 3.02 ± 0.046 | 2.95 ± 0.043
QQQQAAALANANNNINS [SWI1] | 2.51 ± 0.058 | 2.3 ± 0.053 | 2.46 ± 0.047 | 2.65 ± 0.06
LEALRQNYRLDGRSFDQ [RRP45] | 2.43 ± 0.11 | 1.97 ± 0.12 | 1.61 ± 0.14 | 2.81 ± 0.086
HFFKWIEFIVYHQLLSD [SRB8] | 1.45 ± 0.05 | 1.3 ± 0.046 | 2.03 ± 0.08 | 1.2 ± 0.041
ELFKDYKPGSITLENIT [MED1] | 2.53 ± 0.067 | 2.36 ± 0.053 | 1.96 ± 0.062 | 2.11 ± 0.042
LLDVKLAIDNMYILGMC [YCG1] | 1.56 ± 0.086 | 1.51 ± 0.051 | 1.86 ± 0.071 | 2.12 ± 0.05
RLKDVEWVKLHRLLQRA [RMP1] | 3.16 ± 0.085 | 3.13 ± 0.093 | 3.24 ± 0.06 | 3.02 ± 0.079
WDDHTKKPLSMALNKVL [CDC53] | 1.99 ± 0.069 | 2.29 ± 0.076 | 2.36 ± 0.056 | 1.94 ± 0.048
NWRLVEVGRVVLIKKGQ [RPL14A] | 2.17 ± 0.18 | 1.74 ± 0.13 | 2.15 ± 0.13 | 2.19 ± 0.19
NCIRILADKLENYEGKQ [YIL149C/MLP2] | 3 ± 0.3 | 3.57 ± 0.2 | 3.22 ± 0.093 | 2.81 ± 0.19
LPVNIRRIIQNAQQTFH [RPO21] | 2 ± 0.053 | 2.01 ± 0.05 | 2.64 ± 0.075 | 1.56 ± 0.051
MTYKNKLTVCFDDILKV [MED2] | 2.13 ± 0.048 | 2 ± 0.041 | 1.9 ± 0.071 | 2.08 ± 0.033
INNNINIPQQQQMQPPN [GAL11] | 2.58 ± 0.07 | 2.87 ± 0.073 | 2.83 ± 0.049 | 2.84 ± 0.056
TKFFDDAKSTPLRLRLY [RPN9] | 3.26 ± 0.24 | 3.02 ± 0.15 | – | 2.89 ± 0.17
EVQCTSTPYLEILVEES [PCI8] | 2.3 ± 0.067 | 2.96 ± 0.18 | 2.33 ± 0.14 | 2.64 ± 0.083
ISLSVHTLALEFVNGGK [RRP46] | 2.49 ± 0.1 | 2.79 ± 0.068 | 2.06 ± 0.08 | 2.66 ± 0.079
